Test [1] addresses T1, EGFR on cells (A431; tumor cell lines; K562 cells electroporated with EGFR mRNA) (UniProt P00533 25-1210, limits assumed).
T1 construct: whole, on cells; also called epidermal growth factor receptor
The test is described as follows: affinity of the scFv printed above the panel (legend paragraph 89; called KD, nM in paragraph 90); method and form of EGFR not given in the filing, text cites Zhou et al. 2007.

Test [2] concerns the target Folate receptor alpha on cells (SKOV3, A1847, T47D; low levels on 293T and IOSE 6) (human, UniProt P15328 25-234). The test is described as follows: cell-based or functional assay.

Chain of Folate receptor alpha on cells (SKOV3, A1847, T47D; low levels on 293T and IOSE 6) (P15328 25-234, stated change not applied): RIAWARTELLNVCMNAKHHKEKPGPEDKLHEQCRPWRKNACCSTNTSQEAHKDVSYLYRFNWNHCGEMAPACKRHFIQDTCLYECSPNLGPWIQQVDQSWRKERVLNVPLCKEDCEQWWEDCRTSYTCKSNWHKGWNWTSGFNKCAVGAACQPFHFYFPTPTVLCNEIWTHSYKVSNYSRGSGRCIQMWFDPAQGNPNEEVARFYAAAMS

B1: C10 (scFv)
scFv: EVQLVQSGAEVKKPGSSVKVSCKASGGTFSSYAISWVRQAPGQGLEWMGGIIPIFGTANYAQKFQGRVTITADESTSTAYMELSSLRSEDTAVYYCAREEGPYCSSTSCYGAFDIWGQGTLVTVSSGGGGSGGGGSGGGGSQSVLTQDPAVSVALGQTVKITCQGDSLRSYFASWYQQKPGQAPTLVMYARNDRPAGVPDRFSGSKSGTSASLAISGLQSEDEADYYCAAWDDSLNGYLFGAGTKLTVL
notes: The CAR built from it is m23; also called C10 scFv (anti-EGFR, parental)
As a reminder, the Kd is the concentration at which binding is half-saturated. Higher therefore signals a looser complex. B1: in test [1], the Kd amounted to 264 nM.

B2: P3-5 (scFv)
scFv: EVQLVQSGAEVKKPGSSVKVSCKASGGTFSSYAISWVRQAPGQGLEWVGGIIPIFGTANYAQKFQGRVKITADESASTAYMELSSLRSEDTAVYYCAREEGPYCSSTSCYGAFDIWGQGTLVTVSSGGGGSGGGGSGGGGSQSVLTQDPAVSVALGQTVKITCQGDSLRSYLASWYQQKPGQAPTLVTYARNDRPAGVPDRFSGSKSGTSASLAISGLQSEDEADYYCAAWDDSLNGYLFGAGTKLTVL
notes: The CAR built from it is m22; also called P3-5 scFv (anti-EGFR)
Take B2: binding in test [1] was characterised by a dissociation constant (Kd) of 88.2 nM.

B3: P2-4 (scFv)
scFv: EVQLVQSGAEVKKPGSSVKVSCKASGGTFSSYAISWVRQAPGQGLEWMGGIIPIFGTANYAQKFQGRVTITADESTSTAYMELSSLRSEDTAVYYCAREEGPYCSSTSCYAAFDIWGQGTLVTVSSGGGGSGGGGSGGGGSQSVLTQDPAASVALGQTVKITCQGDSLRSYFASWYQQKPGQAPTLVMYARNDRPAGVPDRFSGSKSGTSASLAISGLQSEDEADYYCAAWDDSLNGYLFGAGTKLTVL
notes: The CAR built from it is m21; also called P2-4 scFv (anti-EGFR)
As to B3, in test [1], the Kd is 15.4 nM.

B4: C4-27z CAR (fully human anti-FRA C4 scFv linked to CD27 and CD3z signaling domains), on primary human T cells (other, not shown: large carriers)
chain: QLVESGGGLVQPGRSLRLSCTTSGFTFGDYAMIWARQAPGKGLEWVSSISSSSSYIYYADSVKGRFTISRDNAKNSLYLQMNSLRAEDTAVYYCARERYDFWSGMDVWGKGTTVTVSSGGGGSGGGGSGGSAQSALTQPASVSGSPGQSITISCTGTSSDVGSYNLVSWYQQHPGKAPKLMIYEGSKRPSGVSNRFSGSKSGNAASLTISGLQAEDEADYYCQSYDSSLSVVFGGGTKLTVLG
With B4, in test [2], the “CAR expression kept after overnight co-culture with SKOV3 cells at the lowest E:T ratio” value was ~50 % of initial CAR expression; the “frequency of CAR T cells expressing IFN-γ after incubation with FRAPOS SKOV3 cells, fold over MOv19 CAR T cells” value was 5.6 fold; the “frequency of CAR T cells expressing IL-2 after incubation with FRAPOS SKOV3 cells, fold over MOv19 CAR T cells” value was determined as 9 fold; the “frequency of CAR T cells expressing TNF-α after incubation with FRAPOS SKOV3 cells, fold over MOv19 CAR T cells” value was determined as 6.1 fold.
